Measured values: the supplement of paper PMC9112550, “Optimization of the antimicrobial peptide Bac7 by deep mutational scanning” (BMC Biology, 2022)

Test system: Escherichia coli TOP10
Assay: shrunken log2 fold change of peptide-encoding DNA abundance (4.5 h post-induction vs induction); higher = less antimicrobial activity (less host growth inhibition)
Settings: time post-induction: 4.5 h; library: site-saturation at positions 5, 18, 19, 20
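Also: peptides expressed intracellularly from a pBAD plasmid library in pooled LB shake-flask culture, induced with 0.3% L-arabinose, DNA abundance read by NGS, three biological replicates, DESeq2 with apeglm shrinkage.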

Sequence	shrunken log2 fold change
RRIRGRPPRLPRPRPRPIPFPRP	0.266
RRIRGRPPRLPRPRPRPIPMPRP	0.372
RRIRGRPPRLPRPRPRPIQDPRP	0.391
RRIRGRPPRLPRPRPRPIRGPRP	0.29
RRIRGRPPRLPRPRPRPIRNPRP	-0.0262
RRIRGRPPRLPRPRPRPISKPRP	0.0989
RRIRGRPPRLPRPRPRPISRPRP	0.0494
RRIRGRPPRLPRPRPRPISWPRP	-0.0765
RRIRGRPPRLPRPRPRPITSPRP	0.0724
RRIRGRPPRLPRPRPRPIWDPRP	0.474
RRIRGRPPRLPRPRPRPIWWPRP	0.922
RRIRGRPPRLPRPRPRPIYEPRP	-0.0413
RRIRGRPPRLPRPRPRPIYHPRP	-0.1
RRIRGRPPRLPRPRPRPIYYPRP	-0.197
RRIRGRPPRLPRPRPRPKCVPRP	0.505
RRIRGRPPRLPRPRPRPKDQPRP	0.843
RRIRGRPPRLPRPRPRPKEKPRP	0.0377
RRIRGRPPRLPRPRPRPKFKPRP	0.383
RRIRGRPPRLPRPRPRPKGTPRP	0.294
RRIRGRPPRLPRPRPRPKHFPRP	-0.121
RRIRGRPPRLPRPRPRPKIFPRP	0.288
RRIRGRPPRLPRPRPRPKIKPRP	0.564
RRIRGRPPRLPRPRPRPKILPRP	0.229
RRIRGRPPRLPRPRPRPKIWPRP	0.64
RRIRGRPPRLPRPRPRPKKAPRP	-0.0191

Sequence	shrunken log2 fold change
RRIRGRPPRLPRPRPRPKKPPRP	-0.0158
RRIRGRPPRLPRPRPRPKKRPRP	0.817
RRIRGRPPRLPRPRPRPKLNPRP	0.69
RRIRGRPPRLPRPRPRPKMPPRP	0.434
RRIRGRPPRLPRPRPRPKPLPRP	0.375
RRIRGRPPRLPRPRPRPKPQPRP	0.543
RRIRGRPPRLPRPRPRPKPYPRP	0.332
RRIRGRPPRLPRPRPRPKQFPRP	0.566
RRIRGRPPRLPRPRPRPKRNPRP	0.624
RRIRGRPPRLPRPRPRPKTPPRP	1.73
RRIRGRPPRLPRPRPRPKVTPRP	0.29
RRIRGRPPRLPRPRPRPKWEPRP	1.13
RRIRGRPPRLPRPRPRPKWYPRP	0.806
RRIRGRPPRLPRPRPRPKYSPRP	-0.156
RRIRGRPPRLPRPRPRPKYTPRP	0.101
RRIRGRPPRLPRPRPRPLACPRP	0.975
RRIRGRPPRLPRPRPRPLAHPRP	0.546
RRIRGRPPRLPRPRPRPLAMPRP	0.94
RRIRGRPPRLPRPRPRPLARPRP	0.91
RRIRGRPPRLPRPRPRPLDWPRP	1.07
RRIRGRPPRLPRPRPRPLDYPRP	0.0074
RRIRGRPPRLPRPRPRPLFYPRP	0.257
RRIRGRPPRLPRPRPRPLHCPRP	0.188
RRIRGRPPRLPRPRPRPLHIPRP	0.105
RRIRGRPPRLPRPRPRPLIFPRP	0.404

Sequence	shrunken log2 fold change
RRIRGRPPRLPRPRPRPLIVPRP	0.274
RRIRGRPPRLPRPRPRPLKAPRP	0.0177
RRIRGRPPRLPRPRPRPLLAPRP	2.21
RRIRGRPPRLPRPRPRPLLEPRP	1.39
RRIRGRPPRLPRPRPRPLLSPRP	1.04
RRIRGRPPRLPRPRPRPLMCPRP	0.55
RRIRGRPPRLPRPRPRPLMVPRP	0.885
RRIRGRPPRLPRPRPRPLPQPRP	0.927
RRIRGRPPRLPRPRPRPLQAPRP	1.86
RRIRGRPPRLPRPRPRPLRKPRP	1.12
RRIRGRPPRLPRPRPRPLRTPRP	1.69
RRIRGRPPRLPRPRPRPLSCPRP	0.276
RRIRGRPPRLPRPRPRPLTGPRP	0.71
RRIRGRPPRLPRPRPRPLTPPRP	1.43
RRIRGRPPRLPRPRPRPLVFPRP	0.455
RRIRGRPPRLPRPRPRPLVGPRP	0.439
RRIRGRPPRLPRPRPRPLVNPRP	0.4
RRIRGRPPRLPRPRPRPLWKPRP	0.819
RRIRGRPPRLPRPRPRPMCPPRP	0.0883
RRIRGRPPRLPRPRPRPMCVPRP	0.723
RRIRGRPPRLPRPRPRPMDVPRP	0.265
RRIRGRPPRLPRPRPRPMDYPRP	0.0324
RRIRGRPPRLPRPRPRPMIKPRP	2.22
RRIRGRPPRLPRPRPRPMIVPRP	0.554
RRIRGRPPRLPRPRPRPMIWPRP	0.589
